Our source for the Kd values is publication PMC9888386 (The Journal of Clinical Investigation, 2023).

In the assay the target is T1, KEAP1 (microscale thermophoresis assay) (UniProt Q14145 1-624).
T1 construct: KEAP1 as used in the microscale thermophoresis assay; May be the same as GST-KEAP1-WT
Nature of the assay: MST; microscale thermophoresis; conditions in the Supplemental Methods, not shown.

T1 sequence (Q14145 whole entry): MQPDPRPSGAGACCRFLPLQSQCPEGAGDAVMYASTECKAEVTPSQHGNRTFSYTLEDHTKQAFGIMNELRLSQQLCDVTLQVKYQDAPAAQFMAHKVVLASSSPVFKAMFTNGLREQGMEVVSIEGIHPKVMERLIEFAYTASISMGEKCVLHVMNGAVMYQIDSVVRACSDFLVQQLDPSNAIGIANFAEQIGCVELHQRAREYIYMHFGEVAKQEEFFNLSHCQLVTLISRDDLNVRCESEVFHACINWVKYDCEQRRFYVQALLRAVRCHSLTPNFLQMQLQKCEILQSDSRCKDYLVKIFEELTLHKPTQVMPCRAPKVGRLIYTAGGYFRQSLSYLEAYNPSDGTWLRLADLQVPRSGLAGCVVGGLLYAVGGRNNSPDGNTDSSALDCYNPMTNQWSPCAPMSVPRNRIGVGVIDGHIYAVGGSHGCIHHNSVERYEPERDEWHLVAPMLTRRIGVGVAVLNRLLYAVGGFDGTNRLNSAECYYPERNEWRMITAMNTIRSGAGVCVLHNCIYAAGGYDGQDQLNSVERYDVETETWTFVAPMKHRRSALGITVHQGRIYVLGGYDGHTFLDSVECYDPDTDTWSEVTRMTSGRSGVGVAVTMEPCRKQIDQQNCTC

B1: truncated NRF2 (NRF2^ΔDLG) (natural protein)
chain: MMDLELPPPGLPSQQDMDLIDILWRQDIVSREVFDFSQRRKEYELEKQKKLEKERQEQLQKEQEKAFFAQLQLDEETGEFLPIQPAQHIQSETSGSANYSQVAHIPKSDALYFDDCMQLLAQTFPFVDDNEVSSATFQSLVPDIPGHIESPVFIATNQAQSPETSVAQVAPVDLDGMQQDIEQVWEELLSIPELQCLNIENDKLVETTMVPSPEAKLTEVDNYHFYSSIPSMEKEVGNCSPHFLNAFEDSFSSILSTEDPNQLTVNSLNSDATVNTDFGDEFYSAFIAEPSISNSMPSPATLSHSLSELLNGPIDVSDLSLCKAFNQNHPESTAEFNDSDSGISLNTSPSVASPEHSVESSSYGDTLLGLSDSEVEELDSAPGSVKQNGPKTPVHSSGDMVQPLSPSQGQSTHVHDAQCENTPEKELPVSPGHRKTPFTKDKHSSRLEAHLTRDELRAKALHIPFPVEKIINLPVVDFNEMMSKEQFNEAQLALIRDIRRRGKNKVAAQNCRKRKLENIVELEQDLDHLKDEKEKLLKEKGENDKSLHLLKKQLSTLYLEVFSMLRDEDGKPYSPSEYSLQQTRDGNVFLVPKSKKPDVKKN
For the molecule B1, the Kd (usually the concentration at which binding is half-saturated) is 5.28 µM.
